{"source": "patent US10434074B2", "about": "“Peptide and small molecule agonists of EPHA and uses thereof” (CASE WESTERN RESERVE UNIVERSITY, priority 2004, dated 2019)", "molecules": {"B1": {"name": "ephrin-A1-Fc: ephrin-A1 dimerized by fusion to the heavy chain of human IgG1 (protein)", "chain": "DRHTVFWNSSNPKFRNEDYTIHVQLNDYVDIICPHYEDHSVADAAMEQYILYLVEHEEYQLCQPQSKDQVRWQCNRPSAKHGPEKLSEKFQRFTPFTLGKEFKEGHSYYYISKPIHQHEDRCLRLKVTVSGKITHSPQAHDNPQEKRLAADDPEVRVLHSIGHS", "modifications": "left off: a dimerising Fc or GST", "notes": "ephrin-A1 dimerized by fusion to the heavy chain of human IgG1"}}, "type_in_all_cases": "cell-based, human", "key": {"DU-145 cells": {"test_system": "DU-145 cells", "experiment": "HGF/SF-induced cell scattering / EMT", "method": "FIGS. 4(A-B) illustrate EphA activation attenuated cell scattering induced by HGF/SF. DU-145 cells were cultured in the presence of indicated reagents. Cell morphology was recorded 24 and 48 hours after the initiation of treatments (A). Numbers of total cells and cells without contact with other cells were counted in 6-8 randomly chosen fields (B). * HGF/SF/Fc vs. HGF/SF/ephrinA1-Fc: p<10^−5.\nTumor cells scattering/detaching from primary tumors is considered as the first step in tumor metastasis. In addition to promoting cell migration and invasion, HGF/SF is known to disrupt cell-cell adhesion mediated by E-cadherin, induce epithelial-mesenchymal transition (EMT) and cause cell scattering. Therefore, we examined the effects of EphA2 activation on EMT and scattering induced by HGF/SF. DU-145 cells were treated with Fc (control) or ephrin-A1-Fc in the presence or absence of HGF/SF. Cell morphology was recorded 24 and 48 hours after the addition of stimuli (FIGS. 4A and B). In control Fc-treated cells, only about 5% of cells were found as individual cells with no direct contact with neighboring cells, while remaining cells aggregate to form colonies with typical epithelial morphology. […] Following 24 hour HGF treatment, most of cells underwent EMT characterized by detachment from each other and transformation into spindle-shaped fibroblastic morphology. […]"}, "E-cadherin": {"test_system": "E-cadherin", "experiment": "E-cadherin immunoblot and immunofluorescence", "method": "FIGS. 5(A-E) illustrate (A) Ephrin-A1 co-stimulation inhibited the loss of E-cadherin induced by HGF/SF. DU-145 cells were treated as indicated for 24 or 48 hours. Cell lysates were subject to anti-E-cadherin immunoblot. Same membrane was stripped and blotted with anti-ERK1 as loading control. Relative intensity of E-cadherin=intensities of E-cadherin band/intensity of ERK band. (B) Immunofluorescent staining of E-cadherin after 24 hours of the indicated treatment. Note almost exclusive cytoplasmic staining pattern in HGF/SF treated cells, while cotreatment with ephrin-A1 restored significant levels of E-cadherin at cell-cell junction. (C) Ephrin-A1-Fc pre-treatment preserved E-cadherin expression in HGF/SF treated cells. DU-145 cells were pre-treated with Fc or ephrin-A1-Fc for 24 hours. HGF/SF was then added. The cells were cultured for another 24 hours and lysed for anti-E-cadherin immunoblot. Anti-ERK1 was used as loading control. (D) Cells grown on cover slips received same treatment as in C were subject to anti-E-cadherin immunofluorescence analysis. Note the significant preservation of E-cadherin localization at cell-cell adhesion site by ephrin-A1-Fc compared with Fc control. (E) Numbers of total cells and cells without contact with other cells were counted in 6-8 randomly chosen fields. * Fc/HGF/SF vs. ephrin-A1-Fc/HGF/SF: p=4.6×10^−7.\nCells were cultured on cover slips in 24-well dishes for 24 hours, fixed in 4% formaldehyde for 20 minutes and permeabilized with 0.5% NP-40 for 10 minutes. Blocking was performed using blocking solution containing 2% BSA and 2% goat serum in PBS. Subsequently, cells were incubated with 1 μg/ml anti-EphA2 or anti-E-cadherin antibody. A Texas Red-conjugated goat anti-rabbit IgG or FITC-conjugated rabbit anti-mouse IgG was used to visualize the primary antibodies. Vector-Shield mounting solution containing DAPI (Vector Laboratories) was used to mount the cover slips onto slides.\nCells cultured in 6 well plates at 70-80% confluence were stimulated with 0.5 μg/ml Fc, 1 μg/ml epnrinA1-Fc or 20 ng/ml HGF/SF or their combinations as indicated. After stimulation, cells were lysed in RIPA buffer (20 mM Tris, pH7.4, 125 mM NaCl, 20 mM NaF, 0.1% SDS, 10% glycerol, 0.5% sodium deoxycholate, and 1% TX-100, 0.5 mM Na3VO4) containing protease inhibitors (1 mM phenylmethylsulphonyl fluoride, and 2 μg/ml each of aprotinin and leupeptin). Cell lysates were clarified by centrifugation at 13,000 rpm for 5 min. Immunoprecipitation was carried out by adding anti-EphA2 antibody to clarified cell lysates and incubated for 1 hour at 4° C. The immunocomplex was captured using γ-bind beads (Pharmacia). Cell lysates or precipitated proteins were separated on 4-20% Tris-glycine gels (Invitrogen) and transferred to Immobilon-P PVDF membranes (Millipore). […] For quantitative analysis, band densities were measured using KODAK 1D imagine analysis software (Eastman Kodak Company)."}, "Akt and ERK": {"test_system": "Akt and ERK", "experiment": "Akt and ERK activities in DU145 cells expressing WT or dominant negative EphA2", "conditions": "DU145 with dominant negative EphA2", "text": "(§1) FIGS. 46(A-D) illustrate A) EphA2 is overexpressed in osseous but not lymph node metastases of human prostate cancer specimens obtained from rapid autopsy. […] DU145 cells were infected with a retroviral vector expressing wild type (WT) or a dominant negative mutant EphA2 where the entire cytoplasmic tail was replaced with GFP. An antibody against the ectodomain of EphA2 was used to determine the expression of endogenous (vector control), WT- and DN-EphA2. D) Upregulation of EphA2 by Ras but not Myc oncogene in NRP152 normal rat prostate epithelial cells.\nas §1, with “We observed that” for “FIGS. 46(A-D) illustrate A)”, “autopsy (FIG. 46A).” for “autopsy.”, “DN-EphA2 (FIG. 46C). We further observed upregulation” for “DN-EphA2. D) Upregulation”, “cells (FIG. 46D).” for “cells.”"}, "[1]": {"test_system": "H125, H1975 and SKMES cells", "experiment": "ERK and AKT phosphorylation in non-small cell lung cancer cells", "conditions": "2 ìg/ml, 10 and 30 minutes", "text": "(§2) FIGS. 47(A-C) illustrate A) Expression of β-gal in EphA2 KO mouse lung. Frozen sections were fixed and stained with X-gal and followed by counterstaining with nuclear Fast-Red. B) Expression of EphA2 in the lung from wild-type mice. Lung frozen sections were stained with goat polyclonal antibodies that recognize the ectodomain of EphA2 followed by detection with donkey anti-goat IgG conjugated with FITC. C) EphA kinase activation by ephrin-A1 in H125, H1975 and SKMES human non-small cell lung cancer cells. Cells were stimulated with 2 ìg/ml of ephrin-A1-Fc for 10 and 30 minutes.\nas §2, with “FIG. 47A illustrates the expression” for “FIGS. 47(A-C) illustrate A) Expression”, “knockout” for “KO”, “FIG. 47B illustrates expression” for “B) Expression”, “FIG. 47C illustrates” for “C)”"}}, "note": "Entries after “also recorded” stand apart in the source; their conditions may differ."}
{"molecule": "B1", "values": [{"measurement": "fraction of scattered cells", "setting": "DU-145 cells; 24 hour HGF treatment, 95% with HGF and Fc", "result": 15, "unit": "%"}, {"measurement": "cell morphology", "setting": "DU-145 cells; without HGF/SF", "result": "more compact cobblestone morphology"}, {"measurement": "total E-cadherin, 24 hours pretreatment before HGF/SF", "setting": "E-cadherin; immunoblot", "result": "significantly prevented HGF/SF-induced down-regulation of total cellular E-cadherin"}, {"measurement": "total E-cadherin on co-treatment with HGF/SF", "setting": "E-cadherin; immunoblot, 24 or 48 hours", "result": "significantly preserved"}, {"measurement": "E-cadherin at cell-cell junction, 24 hours pretreatment before HGF/SF", "setting": "E-cadherin; immunofluorescence", "result": "significant fraction of E-cadherin was retained at cell-cell junction"}, {"measurement": "E-cadherin at cell-cell junctions on co-treatment with HGF/SF", "setting": "E-cadherin; immunofluorescence", "result": "dramatically retained"}, {"measurement": "E-cadherin expression", "setting": "E-cadherin; ligand alone vs Fc, immunoblot", "result": "moderately increased E-cadherin expression; also recorded: increased E-cadherin expression at 48 hours"}, {"measurement": "Akt and ERK activities", "setting": "Akt and ERK", "result": "abolished the inhibitory effects"}, {"measurement": "ERK and AKT phosphorylation", "setting": "[1]", "result": "inhibits ERK and AKT phosphorylation"}]}
